Data from patent publication WO2021223719A1 (dated 2021).
Changes are numbered by the printed parent chain. Each block holds one binder with its values, some of them ahead of it.

Molecular target: FMC63-scFv-mFc protein
Test: ELISA, plate coated with FMC63-scFv-mFc, biotin-labelled FMC63-scFv-mFc for detection

B1: mAb02 (8B3H4) (antibody, human IgG1, kappa, V domains shown)
VH: QVQVQQPGAELVKPGASVRLSCKASGYTFTTYWMHWVKQRPGQGLEWIGMIHPNSDSINYNEKFKSKATLIVDKSSSTFYMQLSSLTSEDSAVYYCARTDGYYAPYFAMDYWGQGTSVTVSS
VL: DIQMTQTTSSLSASLGDRVTISCRASQDIRDNLNWYQQKPDGTVKLLIYYKSRSHSGVPSRFSGSGSGTDYSLTISNLEQEDIATYFCQQGNTLPFTFGSGTKLEIKR
notes: Tested as the murine hybridoma antibody
- EC50: 0.023 µg/mL

B2: mAb07 (27C5E11) (antibody, V domains shown)
VH: B1 VH with V4L, R19K, T31S, S55G, I58T, S66T, I71T, F79A
VL: DIQMTQSTSSLSASLGDRVTISCRASQDINNYLNWYQQKPDGTVKLLIYYTSRLHLGVPSRFSGSGSGTDYSLTISNLEQEDIATYFCQQGNTLPFTVGSGTKLEIK
- EC50: 0.099 µg/mL

B5: mAb06 (26E7D2) (antibody, human IgG1, kappa, V domains shown)
VH: QVQLQQPGAELVKPGASVKLSCKVSGYTFTSYWIHWVKQRPGRGLEWIGRIDPISGGANYNEKFKTKATLTVDKPSSTAYMQLSSLTSEDSAVYYCARWGGGDYWGHGTTLTVSS
VL: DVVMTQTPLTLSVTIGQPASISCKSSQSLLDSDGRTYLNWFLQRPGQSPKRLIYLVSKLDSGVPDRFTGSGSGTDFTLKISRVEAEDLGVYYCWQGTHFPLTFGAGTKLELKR
notes: as for B1
- EC50: 0.0299 µg/mL

Continued, values first:

- EC50: 0.113 µg/mL
B3: mAb020 (52H8C4) (antibody, human IgG1, kappa, V domains shown)
VH: EVMLVESGGGLVKPGGSLKLSCAASGFTFSSYTMSWVRQTPEKRLEWVATITGGGGDTFYPDSVKGRFTISRDNAKNTLYLQVSSLRSEDTAVYHCARQYYDYDGGAMDYWGQGTSVTVSS
VL: DIVLTQSPASLAVSLGQRAIISCKASQSVSFAGTGLMHWYQQKPGQQPKLLIYRASNLEAGVPTRFSGSGSRTDFTLNIHPVEEDDAATYYCQQSREYPRTFGGGTKLEIKR
notes: as for B1

- EC50: 0.0512 µg/mL
B4: mAb023 (75H6C7) (antibody, V domains shown)
VH: QAQLQQPGAELVMPGASVKLSCKASGYTFTNYWMNWMKQRPGQGLEWIGEIDPSDSDKNYNQKFKDKATLTVDKSSSTAYMQLSSLTSEDSAVYYCAGGYYGMDFWGQGTSVTVSS
VL: DVVMTQTPLSLPVSLGDQASISCRSSQSLENSKGNTYLNWYVQKPGQSPQLLIYRVSTRFSGVLDRFSGSGSGTDFTLKISRVEAEDLGVYFCLQLTHVPFTFGSGTKLEIK
